# Test results reported in patent publication US20190359653A1 (Genentech, published 2019).
# * marks the point of attachment. Palmitoyl = CCCCCCCCCCCCCCCC(=O)*; Myristoyl = CCCCCCCCCCCCCC(=O)*; Lauroyl = CCCCCCCCCCCC(=O)*; Decanoyl = CCCCCCCCCC(=O)*; Octanoyl = CCCCCCCC(=O)*
# Biological target: T1, FZD7 receptor of HEK293-TB cells (human, UniProt O75084 33-574)
# Assay: cell-based or functional assay
row,Binder,"Best Fit IC50 (nM), Wnt3a-mediated β-catenin signaling in HEK293-TB cells (50 ng/mL mWnt3a) [nM]"
1,Ac-SDDLEFWCHVK(Decanoyl)Y-NH2 (also: dimer via disulfide bond at Cys8) [dFz7-21Δ2.M13K (C10)],1500
2,Ac-SDDLEFWCHVK(Octanoyl)Y-NH2 (also: dimer via disulfide bond at Cys8) [dFz7-21Δ2.M13K (C8)],2130
3,Ac-SDDLEFWCHVK(Palmitoyl)Y-NH2 (also: dimer via disulfide bond at Cys8) [dFz7-21Δ2.M13K (C16)],607
4,Ac-SDDLEFWCHVK(Myristoyl)Y-NH2 (also: dimer via disulfide bond at Cys8) [dFz7-21Δ2.M13K (C14)],607
5,Ac-SDDLEFWCHVK(Lauroyl)Y-NH2 (also: dimer via disulfide bond at Cys8) [dFz7-21Δ2.M13K (C12)],553

# Biological target: T1, FZD7 receptor of HEK293-TB cells
# Assay: cell-based or functional assay
# Remark: another data set of the same source
Binder,"IC50 (nM), TOPbrite reporter assay in HEK293-TB cells stimulated with mWnt3a (50 ng/mL) [nM]",Reduction in fold potency vs. dimer [fold]
Ac-LPSDDAEFWCHVMY-NH2 (also: homodimer via Cys10 disulfide) [dFz7-21-L6A],7120,642
Ac-LPSDDLEFWCHVMA-NH2 (also: homodimer via Cys10 disulfide) [dFz7-21-Y14A],2960,267
Ac-LPSDDLEFWCHVAY-NH2 (also: homodimer via Cys10 disulfide) [dFz7-21-M13A],913,82
Ac-LPSDDLEFACHVMY-NH2 (also: homodimer via Cys10 disulfide) [dFz7-21-W9A],640,58
